Data published in the nanobody polyreactivity screen of Harvey et al. (2022).

test: yeast display, Sf9 membrane polyspecificity reagent, FACS + sequencing; frameworks hold sequencing errors
Procedure, shortened: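 Synthetic nanobody libraries on Saccharomyces cerevisiae BJ5465 were galactose-induced for 36–48 hours, stained 1 hour at 4 °C with 10% biotinylated, detergent-solubilized Sf9 membrane reagent and enriched on streptavidin microbeads. FACS then separated cells into low and high (top ~1%) gates by anti-HA (expression) and streptavidin (reagent binding) fluorescence. Genes were colony-PCR amplified, MiSeq 2 × 250 sequenced and CDR-length filtered. A clone's polyreactivity label is that of its gate of origin.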

Sequence	polyreactivity (PSR sort gate)
QVQLVESGGGLVQAGGSLRLSCAASGSIFHIYAMGWYRQAPGKERELVAAISSGGRTNYADSVKGRFTISRDNAKNTVYLQMNSLKPEDTEVYYCAADWIYLPTRNYRVRVDYWGQGTQVTVSS	high polyreactivity
QVQLVESGGGLVQAGGSLRLSCAASGSIFHKYTMGWYRQAPGKERELVAAITRSGGSTYYADSVNGRFTISRDNAKNTVYLQMNSLKAEDTAVYYCNKRYIPWAYDYWGQGTKVTVSS	high polyreactivity
QVQLVESGGGLVQAGGSLRLSCAASGSIFHNYDMGCYRQAPGKERELVADISRGGDTNYADSVKGRFTISRDNAKNTVYLQMNSLKPEDTAVYYCSADSADPTEYDYWGQGTQVTVSS	low polyreactivity
QVQLVESGGGLVQAGGSLRLSCAASGSIFHSNAMGWYRQAPGKERELVAAISASGGSTYYADSVKGRFTISRDNAKNTVYLQMNSLKPEDTAVYYCNAVSRYYRFSPYYYWGQGTQVTVSS	high polyreactivity
QVQLVESGGGLVQAGGSLRLSCAASGSIFHVNAMGWYRQAPGKERELVADISKRGASTYYADSVKGRFTISRDNAKNTVYLQMNSLKPEDTAVYYCAARVVTPRRQWYTYDYWGQGTQVTVSS	high polyreactivity
QVQLVESGGGLVQAGGSLRLSCAASGSIFHWYAMGWYRQAPGKERELVAAINWSGGSTYYADSVKGRFTISRDNAKNTVYLQMNSLKPEDTAVYYCNKAYVSRYDYWGQGTQVTVSS	high polyreactivity
QVQLVESGGGLVQAGGSLRLSCAASGSIFHYNSMGWDRQAPGKEWGLVASMSSGGRTYYADSVKGRFTISRDNPKNTVYLQMNSLKPDDTAVYYCAAEYYQTTYVWWTYDYYGGQGTQVTVSS	low polyreactivity
QVQLVESGGGLVQAGGSLRLSCAASGSIFHYYAMGWYRQAPGKERELVAAINSTGGSRTYYADSVKGRFTISRDNAKNTVYLRMNCLKPEDTAVYYCAADYRVVWRAYDYWGQGTQVTVSS	low polyreactivity
QVQLVESGGGLVQAGGSLRLSCAASGSIFHYYAMGWYRQAPGKERELVAAISSVGSTYYADSVKGRFTISRDNAKNTVYLQINSLKPEDTAVYYCAAEAYAKRYVDRYSWYYYWGQGTQVTVSS	high polyreactivity
QVQLVESGGGLVQAGGSLRLSCAASGSIFHYYTMGWYRQAPGKERELVAGISRSGGSTYYADSVKGRFTISRDNAKNTVYLQMNSLKPEDTAVYYCAAARYPYLYAYGYWGQGTQVTVSS	high polyreactivity
QVQLVESGGGLVQAGGSLRLSCAASGSIFIFNTMGWYRQAPGKETELVASISSSGSTYYADSVKGRFTISRANAKNTVYLQMNSLKPEDTAVYYCAADAEDRPSWPGNSEYEYWGQGTQVTVSS	low polyreactivity
QVQLVESGGGLVQAGGSLRLSCAASGSIFIGYAMGWYRQAPGKERELVAAISQSGGRTYYADSVKGRFTISRDNAKNTVYLQMNSLKPEDTAVYYCNKVTKSYFIYDYWGQGTQVTVSS	high polyreactivity
QVQLVESGGGLVQAGGSLRLSCAASGSIFIGYAMGWYRQAPGKERELVAAITSAGSTYADSVKGRFTISRDNAKNTGYLQRNSVKPEDTAVYYCAARFFLVTLDYWGQGTQVTVSS	low polyreactivity
QVQLVESGGGLVQAGGSLRLSCAASGSIFIINAMGWYIQAPGKERELVAAINNGVNTYYADSVKGRFTISRDNAKNTVYLQMNSLKPEDTAVYYCAADYGDPRVNEYDYWGQGTQVTVSS	low polyreactivity
QVQLVESGGGLVQAGGSLRLSCAASGSIFIINAMGWYRQAPGKERELVAAITTSGGRTYYADSVKGRFTISRDNAKNTVYLQMNSLKPEDTAVYSCASSHYGSTGNYWGQGTQVTVSS	low polyreactivity
QVQLVESGGGLVQAGGSLRLSCAASGSIFIINTMGWYRQAPGKERELVAAISWGGTDTNYADSVKGRFTISRDNAKNTVYLQMNSLKPEDTAVYYCNTDQDLVRSYDYWGHGTQVTVSS	low polyreactivity
QVQLVESGGGLVQAGGSLRLSCAASGSIFIQYAMGWYRQAPGKERELVAAINSSGGRTYYADSVKGRFTISRDNAKNTVYLQMNSLKPEDTAVYYCAADHGSSFDWGQGTQVTVSS	low polyreactivity
QVQLVESGGGLVQAGGSLRLSCAASGSIFIRNAKGWYRQAPGKERELVAAISTIGGRTYYADSVKGRFTISRDNAKNTVYLQMNSLKPEDTAVYYCAAEQGTPSTNWYDYWGQGTQVTVSS	low polyreactivity
QVQLVESGGGLVQAGGSLRLSCAASGSIFIRNAMGWYRQAPGKERELVAAISTIGGRTYYADSVKGRFTISRDNAKNTVYLQMNSLNPEDTAVYYCAAEQGTPSTNWYDYWGQGTQVTVSS	low polyreactivity
QVQLVESGGGLVQAGGSLRLSCAASGSIFISYAKGWYRQAPGKERELVAAINYSGGSTYYADSVKGRFTISRDNAKNTVYLQMNSLKPEDTAVYYCAKRSTYRYYGYKLRDYWGQVTQVTVSS	low polyreactivity
QVQLVESGGGLVQAGGSLRLSCAASGSIFISYAMGWYRQAPGKERELVAAISSGGSTNYADSVKGRFTISRDNAKNTVYLQMNSLKPEDTAVYYCAADGWLLSFTGDGWWFDYWGQGTQVTVSS	low polyreactivity
QVQLVESGGGLVQAGGSLRLSCAASGSIFITYAMGWYRQAPGKERELVAAIRDSGDRTYYADSVKGRFTISRDNAKNTVYLQMNSLKPEDTAVYFCNARWQEPLKYDYWGQGTQVTVSS	low polyreactivity
QVQLVESGGGLVQAGGSLRLSCAASGSIFITYAMGWYRQAPGKERELVAAITWRGGSTYYADSVKGRFTISRDNAKNTVYLQMNSLKPEDTAVYYCAAEDFYYRSQYRYWYDYWGQGTQVTVSS	high polyreactivity
QVQLVESGGGLVQAGGSLRLSCAASGSIFITYVMGWSRQAPGKERELVAGISRSGGSTYYADSVKGRFTISRYNAKNTVYLQMNSLKPEDTAVYYCAAFFLRRPGSSGLRLLGQGTQVTVSS	high polyreactivity
QVQLVESGGGLVQAGGSLRLSCAASGSIFIVNAMGWNRQAPGKERELVAAISWSGGSTYYADSVKGRFTISRDNAKNTVYLQMNSLKPEDTAVYYCAAKYTLPFRDVKYYSWGQGTQVTVSS	high polyreactivity
QVQLVESGGGLVQAGGSLRLSCAASGSIFIYNAMGWYRPAPGKETEFVDTINSGTVTKYADSVKGRFTISRDNAKNTVYLQMNSLKPEDTAVYYCATVFDRQYSTQYQVSRYDYWVQGTQVTVSS	low polyreactivity
QVQLVESGGGLVQAGGSLRLSCAASGSIFIYYAMGWYRQAPGKERELVARITGGGSTYYADSVKGRFTISRDNAKNTVYLQMNSLKPEDTAVYYCAKRGYHFLTKYDYWGQGTQVTVSS	low polyreactivity
QVQLVESGGGLVQAGGSLRLSCAASGSIFKANAMGWYRQAPGKERELVATITSSGTRTYYADSVKGRFTISRDNAKNTVYLQMNSLKPEDTAVYYCNARAYPYQRGRYGYWGQGTQVTVSS	high polyreactivity
QVQLVESGGGLVQAGGSLRLSCAASGSIFKAYAMGWYRQAPGKERELVAAITWSAGSTYYADSVKGRFTISRDNAKNTVYLQMNSLKPEDTAVYYCAAEVRGSYYLTGYDYWGQGTQVTVSS	high polyreactivity
QVQLVESGGGLVQAGGSLRLSCAASGSIFKFYAMGWNRQAPGKERAFVAAITYRGGSTYYADSVKGRFTISRDNAKNTVYLQMNRLKPEDTAVYYCNAVVLRWRGYLVPFNYWGQGTQVTVSS	high polyreactivity
